Measurements as given in patent US20040131585A1.

Biological target: human CXCR4 on intravenously injected human CD34+ angioblasts (human) (UniProt P61073)
Assay: cell-based or functional assay

Sequence of UniProt P61073 (P61073 whole entry): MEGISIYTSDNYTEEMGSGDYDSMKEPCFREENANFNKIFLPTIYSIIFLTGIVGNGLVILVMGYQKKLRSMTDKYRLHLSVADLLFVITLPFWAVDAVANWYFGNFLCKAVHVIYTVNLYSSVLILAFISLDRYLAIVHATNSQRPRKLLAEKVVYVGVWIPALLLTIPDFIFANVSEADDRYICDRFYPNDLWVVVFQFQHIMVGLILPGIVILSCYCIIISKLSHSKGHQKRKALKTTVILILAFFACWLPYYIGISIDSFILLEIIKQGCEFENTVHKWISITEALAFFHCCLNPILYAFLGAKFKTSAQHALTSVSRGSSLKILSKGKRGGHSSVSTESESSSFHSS

Substance: rat SDF-1 (stromal-derived factor-1) (ligand)
- increase in trafficking of CD34+ human angioblasts to ischemic rat myocardium, with co-administered mAb against human CXCR4: 24%
- increase in trafficking of CD34+ human angioblasts to ischemic rat myocardium, with co-administered mAb against rat SDF-1: 17%
